Results published in the supplement of paper PMC12338614.
± gives the uncertainty stated by the source.

B1: library; numbered along this chain (parent)
chain: MEVVDPQQLGMFTEGELMSVGMDTFIHRIDSTEVIYQPRRKRAKLIGKYLMGDLLGEGSYGKVKEVLDSETLCRRAVKILKKKKLRRIPNGEANVKKEIQLLRRLRHKNVIQLVDVLYNEEKQKMYMVMEYCVCGMQEMLDSVPEKRFPVCQAHGYFCQLIDGLEYLHSQGIVHKDIKPGNLLLTTGGTLKISDLGVAEALHPFAADDTCRTSQGSPAFQPPEIANGLDTFSGFKVDIWSAGVTLYNITTGLYPFEGDNIYKLFENIGKGSYAIPGDCGPPLSDLLKGMLEYEPAKRFSIRQIRQHSWFRKKHPPAEAPVPIPPSPDTKDRWRSMTVVPYLEDLHGADEDEDLFDIEDDIIYTQDFTVPGQVPEEEASHNGQRRGLPKAVCMNGTEAAQLSTKSRAEGRAPNPARKACSASSKIRRLSACKQQ

Variants of: B1
Assay: STK11 functional score (HeLa growth suppression), rescaled enrichment; synonymous median = 1, nonsense median = 0 (normalised score)
Conditions: with HeLa; variant type: missense
In short: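 HeLa cells carrying an AAVS1 landing pad received codon-optimised STK11 libraries made by codon randomisation (POPCode), integrated by Bxb1, with three regions each transfected three times. Integrants that were BFP-negative and mCherry-positive were sorted by FACS 4–5 days after electroporation and then grown for about two weeks. Tiled amplicons from gDNA were sequenced on NextSeq at ~2 million reads per tile. The functional score is a wild-type-corrected log ratio of post- to pre-selection counts, rescaled to the synonymous and nonsense medians, merged across codons and replicate transfections, and given a bootstrapped error.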

Compared with D343C, K44D is lower in STK11 functional score: 1.44 ± 0.35 for the first, 0.859 ± 0.084 for the second.

V390Q and I111D are within error of each other in STK11 functional score: 1.63 ± 0.28 for the first, 1.6 ± 0.19 for the second.

First: K62T
Second: F148Y
The STK11 functional score of the first is higher: 1.7 ± 0.36 for the first, 0.892 ± 0.11 for the second.

T212S and A198W are within error of each other in STK11 functional score: 0.909 ± 0.12 for the first, 1.16 ± 0.18 for the second.

T250S and D258R are within error of each other in STK11 functional score: 1.37 ± 0.27 for the first, 1.29 ± 0.39 for the second.

First: G180H
Second: P149R
The STK11 functional score of the first is higher: 1.65 ± 0.29 for the first, 0.413 ± 0.2 for the second.

Going from R304V to D141E, the STK11 functional score falls from 1.51 ± 0.27 to 0.883 ± 0.17.

First: V66F
Second: I267P
The STK11 functional score of the first is higher: 0.608 ± 0.089 for the first, 0.26 ± 0.21 for the second.

E407F and A406N are within error of each other in STK11 functional score: 1.26 ± 0.58 for the first, 1.58 ± 0.32 for the second.

Compared with P315C, E293G is lower in STK11 functional score: 1.17 ± 0.42 for the first, 0.451 ± 0.27 for the second.

G56I and R297A are within error of each other in STK11 functional score: 0.188 ± 0.091 for the first, 0.147 ± 0.078 for the second.

Going from Q159P to I361N, the STK11 functional score rises from 0.757 ± 0.17 to 1.27 ± 0.24.

V20D and P314S are within error of each other in STK11 functional score: 1.59 ± 0.14 for the first, 1.33 ± 0.16 for the second.

R75C and G15D are within error of each other in STK11 functional score: 1.55 ± 0.091 for the first, 1.72 ± 0.12 for the second.

First: G233R
Second: V337C
The STK11 functional score of the first is lower: 0.173 ± 0.3 for the first, 1.15 ± 0.19 for the second.

First: G91A
Second: K312M
The STK11 functional score of the first is lower: 0.99 ± 0.19 for the first, 1.45 ± 0.19 for the second.

P324I and D162A are within error of each other in STK11 functional score: 1.56 ± 0.27 for the first, 0.819 ± 0.49 for the second.

P411R and D141A are within error of each other in STK11 functional score: 0.986 ± 0.35 for the first, 1.01 ± 0.15 for the second.

A410Y and C151W are within error of each other in STK11 functional score: 1.38 ± 0.37 for the first, 0.903 ± 0.12 for the second.

T189P and V372R are within error of each other in STK11 functional score: 1.12 ± 0.41 for the first, 1.42 ± 0.38 for the second.

First: E145V
Second: I260W
The STK11 functional score of the first is lower: 0.644 ± 0.079 for the first, 1.21 ± 0.38 for the second.

F255A and H27D are within error of each other in STK11 functional score: 1.31 ± 0.29 for the first, 1.22 ± 0.62 for the second.

First: L285Q
Second: T402D
The STK11 functional score of the first is lower: -0.0107 ± 0.26 for the first, 1.21 ± 0.39 for the second.

First: L341H
Second: K262N
The STK11 functional score of the first is lower: 0.315 ± 0.23 for the first, 1.33 ± 0.53 for the second.

First: E138R
Second: T395K
The STK11 functional score of the first is lower: -0.217 ± 0.089 for the first, 0.547 ± 0.29 for the second.

Going from D327L to Y246S, the STK11 functional score falls from 1.55 ± 0.21 to 0.254 ± 0.12.

Compared with M335D, T230N is higher in STK11 functional score: 0.605 ± 0.14 for the first, 1.2 ± 0.42 for the second.

L85W and K269G are within error of each other in STK11 functional score: 1.16 ± 0.086 for the first, 1.46 ± 0.45 for the second.

Going from L9V to G279N, the STK11 functional score rises from 0.506 ± 0.58 to 1.57 ± 0.16.

K96H and L102E are within error of each other in STK11 functional score: 1.33 ± 0.072 for the first, 1.51 ± 0.11 for the second.

L140V and K423L are within error of each other in STK11 functional score: 0.909 ± 0.079 for the first, 1.45 ± 0.52 for the second.

Compared with P203R, G242T is lower in STK11 functional score: 1.01 ± 0.65 for the first, -0.128 ± 0.097 for the second.

E407M and S31D are within error of each other in STK11 functional score: 1.58 ± 0.15 for the first, 1.28 ± 0.37 for the second.

First: V95G
Second: L102F
The STK11 functional score of the first is lower: 0.326 ± 0.15 for the first, 1.11 ± 0.17 for the second.

Going from L182Y to V143R, the STK11 functional score rises from -0.00243 ± 0.071 to 1.29 ± 0.22.

R106E and S428D are within error of each other in STK11 functional score: 1.63 ± 0.29 for the first, 1.21 ± 0.45 for the second.

R301A and G408E are within error of each other in STK11 functional score: 1.56 ± 0.16 for the first, 1.54 ± 0.12 for the second.

R426T and G188F are within error of each other in STK11 functional score: 1.17 ± 0.53 for the first, 0.918 ± 0.27 for the second.

H379D and P217F are within error of each other in STK11 functional score: 1.18 ± 0.35 for the first, 1.45 ± 0.12 for the second.

Compared with Y292L, V66L is higher in STK11 functional score: 0.546 ± 0.15 for the first, 1.1 ± 0.11 for the second.

D207H and I361H are within error of each other in STK11 functional score: 1.37 ± 0.57 for the first, 1.21 ± 0.46 for the second.

Compared with G56H, P294W is higher in STK11 functional score: 0.0953 ± 0.25 for the first, 1.36 ± 0.11 for the second.

First: L50S
Second: D348I
The STK11 functional score of the first is lower: 1.09 ± 0.12 for the first, 1.41 ± 0.13 for the second.

Compared with D284I, D53V is lower in STK11 functional score: 1.14 ± 0.43 for the first, 0.606 ± 0.096 for the second.

S31I and A429R are within error of each other in STK11 functional score: 1.41 ± 0.12 for the first, 1.5 ± 0.17 for the second.

Going from P413S to G215I, the STK11 functional score falls from 1.46 ± 0.27 to 0.938 ± 0.11.

P324G and K44C are within error of each other in STK11 functional score: 1.36 ± 0.15 for the first, 1.12 ± 0.2 for the second.

I260N and C210V are within error of each other in STK11 functional score: 1.67 ± 0.52 for the first, 1 ± 0.26 for the second.

K108W and Q170S are within error of each other in STK11 functional score: 0.834 ± 0.38 for the first, 0.916 ± 0.13 for the second.

C418T and R425C are within error of each other in STK11 functional score: 1.58 ± 0.15 for the first, 1.27 ± 0.36 for the second.

I99Q and P294L are within error of each other in STK11 functional score: 0.527 ± 0.62 for the first, 0.297 ± 0.13 for the second.

K403M and E130M are within error of each other in STK11 functional score: 0.00927 ± 0.14 for the first, 0.0424 ± 0.11 for the second.

G381Y and E65W are within error of each other in STK11 functional score: 1.37 ± 0.36 for the first, 1.36 ± 0.12 for the second.

R405F and R104K are within error of each other in STK11 functional score: 1.59 ± 0.27 for the first, 1.31 ± 0.67 for the second.

Compared with T367W, I79H is lower in STK11 functional score: 1.4 ± 0.32 for the first, -0.113 ± 0.19 for the second.

First: N94Y
Second: L117Y
The STK11 functional score of the first is lower: 0.568 ± 0.34 for the first, 1.55 ± 0.19 for the second.

P413W and G394R are within error of each other in STK11 functional score: 0.886 ± 0.37 for the first, 1.17 ± 0.3 for the second.

E375P and E121G are within error of each other in STK11 functional score: 1.53 ± 0.29 for the first, 1.18 ± 0.26 for the second.

First: E165G
Second: Q214C
The STK11 functional score of the first is lower: 0.569 ± 0.084 for the first, 0.896 ± 0.11 for the second.

First: H174L
Second: V368G
The STK11 functional score of the first is lower: 0.234 ± 0.067 for the first, 1.38 ± 0.2 for the second.

L286F and Y49R are within error of each other in STK11 functional score: 0.971 ± 0.3 for the first, 0.545 ± 0.19 for the second.

E351P and K269Y are within error of each other in STK11 functional score: 1.55 ± 0.14 for the first, 1.33 ± 0.36 for the second.

First: T209F
Second: Q305G
The STK11 functional score of the first is lower: 0.568 ± 0.088 for the first, 1.52 ± 0.3 for the second.

S334V and C278P are within error of each other in STK11 functional score: 1.31 ± 0.2 for the first, 1.22 ± 0.19 for the second.

Compared with W239L, R211E is higher in STK11 functional score: 0.325 ± 0.1 for the first, 1.53 ± 0.29 for the second.

H174K and P323Q are within error of each other in STK11 functional score: 0.153 ± 0.09 for the first, 0.422 ± 0.67 for the second.

V95Q and A347M are within error of each other in STK11 functional score: 1.46 ± 0.45 for the first, 1.54 ± 0.17 for the second.

V390S and R425A are within error of each other in STK11 functional score: 1.5 ± 0.27 for the first, 1.59 ± 0.21 for the second.

T189F and F234D are within error of each other in STK11 functional score: 1.25 ± 0.47 for the first, 1.18 ± 0.1 for the second.

Compared with L182G, L282Y is higher in STK11 functional score: 0.327 ± 0.12 for the first, 1.07 ± 0.17 for the second.

Compared with L195S, R383K is higher in STK11 functional score: 0.972 ± 0.13 for the first, 1.57 ± 0.2 for the second.

Going from Y118A to P369W, the STK11 functional score rises from 0.627 ± 0.21 to 1.49 ± 0.22.

G233F and S421E are within error of each other in STK11 functional score: 1.46 ± 0.31 for the first, 1.56 ± 0.28 for the second.

K78Q and P387V are within error of each other in STK11 functional score: 1.1 ± 0.12 for the first, 1.13 ± 0.56 for the second.

N226V and L201F are within error of each other in STK11 functional score: 0.778 ± 0.56 for the first, 0.797 ± 0.33 for the second.

K312F and Q37A are within error of each other in STK11 functional score: 0.982 ± 0.26 for the first, 1.34 ± 0.51 for the second.

Compared with L183P, C430G is higher in STK11 functional score: 0.221 ± 0.35 for the first, 1.55 ± 0.19 for the second.

First: E65Y
Second: E199A
The STK11 functional score of the first is lower: 1.05 ± 0.095 for the first, 1.44 ± 0.23 for the second.

Going from R297S to C391I, the STK11 functional score rises from -0.196 ± 0.08 to 1.07 ± 0.38.

N94A and L286N are within error of each other in STK11 functional score: 0.173 ± 0.19 for the first, 0.195 ± 0.1 for the second.

Going from V173F to L85A, the STK11 functional score rises from 0.953 ± 0.33 to 1.62 ± 0.21.

N380P and R426H are within error of each other in STK11 functional score: 1.59 ± 0.26 for the first, 1.61 ± 0.28 for the second.

E70D and S240G are the same in STK11 functional score: 1.05 ± 0.45 for the first, 1.05 ± 0.16 for the second.

For N380V, the STK11 functional score was 1.12 ± 0.27.
